# Measured values from US20170319648A1 (BAO KANG BIOMEDICAL HEALTHCARE, published 2017).
# Positions of bridges follow the written chain, without caps; N, C: chain ends. Non-standard residues stand in square brackets, D forms with d. No end group written: not given here. hCys = N[C@@H](CCS)C(=O)O
# T1: TEAD
# T1 chain: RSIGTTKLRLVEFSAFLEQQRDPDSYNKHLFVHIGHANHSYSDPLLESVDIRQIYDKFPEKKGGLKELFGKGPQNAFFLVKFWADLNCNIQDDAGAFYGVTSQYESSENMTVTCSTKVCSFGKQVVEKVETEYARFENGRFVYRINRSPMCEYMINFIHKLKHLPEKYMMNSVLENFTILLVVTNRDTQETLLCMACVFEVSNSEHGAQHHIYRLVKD
# Biological target: T1, TEAD
# Test: IC50 for TEAD binding; method not named in the example (TR-FRET test is the filing's screening method)
row,IC50,Binder
1,25 nM,VPM[hCys]LRKLPCSFCDPPE (disulfide 4-13) [polypeptide of SEQ ID NO.: 9 (VPM(Hcy)LRKLPCSFCDPPE)]
2,28 nM,VPMCLRKLPESFCHPPE (disulfide 4-13) [polypeptide of SEQ ID NO.: 8 (VPMCLRKLPESFCHPPE)]
